In the supplement of paper PMC10065799, “High-throughput profiling of sequence recognition by tyrosine kinases and SH2 domains using bacterial peptide display” (eLife, 2023):

Key:
EPHB1 = EPHB1 (UniProt P54762); experiment: phosphorylation enrichment, bacterial display (enrichment ratio); higher = better substrate or ligand; peptides without Tyr show the background
FGFR1 = FGFR1 (UniProt P11362); experiment: as above
Jak2 = Jak2 (UniProt O60674); experiment: as above
Fer (mouse) = experiment: as above
c-Abl (mouse) = experiment: as above
EPHB2 = EPHB2 (UniProt P29323); experiment: as above
c-Src = experiment: as above
AncSZ = experiment: as above
FGFR3 = FGFR3 (UniProt P22607); experiment: as above
MERTK = MERTK (UniProt Q12866); experiment: as above
Fyn = Fyn (UniProt P06241); experiment: as above
Hck = Hck (UniProt P08631); experiment: as above
Fes = Fes (UniProt P07332); experiment: as above
SHP2-C SH2 = experiment: SH2 binding enrichment of the phosphorylated peptide, bacterial display (enrichment ratio); higher = better substrate or ligand; peptides without Tyr show the background
c-Src SH2 = experiment: as above
Grb2 SH2 = Grb2 SH2 (UniProt P62993); experiment: as above
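Wherever SH2 binding enrichment of the phosphorylated peptide, bacterial display is given: peptide library displayed on the E. coli surface as eCPX fusions, selected cells deep-sequenced, score is each peptide's frequency after selection divided by its frequency in the input.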
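Wherever phosphorylation enrichment, bacterial display is given: 11-residue human phosphosite peptides and single-mutation variants displayed on the E. coli surface, counted by deep sequencing, each peptide's frequency after selection divided by its frequency in the unselected input library; frequency after pTyr selection over input frequency; kinase dosed for 20-30% of maximal phosphorylation in three min.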

Chain of Hck (P08631 whole entry, looked up): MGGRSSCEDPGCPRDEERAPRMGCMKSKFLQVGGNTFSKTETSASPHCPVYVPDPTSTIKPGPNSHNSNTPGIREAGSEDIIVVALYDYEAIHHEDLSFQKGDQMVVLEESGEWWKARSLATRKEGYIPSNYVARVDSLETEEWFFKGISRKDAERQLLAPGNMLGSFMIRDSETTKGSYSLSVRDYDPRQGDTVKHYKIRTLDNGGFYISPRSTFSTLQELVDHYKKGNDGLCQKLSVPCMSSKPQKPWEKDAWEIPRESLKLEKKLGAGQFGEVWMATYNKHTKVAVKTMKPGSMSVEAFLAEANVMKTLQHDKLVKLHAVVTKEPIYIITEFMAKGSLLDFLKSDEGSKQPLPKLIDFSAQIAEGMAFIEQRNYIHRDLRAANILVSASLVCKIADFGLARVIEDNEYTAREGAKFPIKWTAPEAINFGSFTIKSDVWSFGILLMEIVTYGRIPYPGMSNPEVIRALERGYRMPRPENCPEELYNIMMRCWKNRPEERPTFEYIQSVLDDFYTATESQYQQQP
Chain of Jak2 (O60674 whole entry, looked up): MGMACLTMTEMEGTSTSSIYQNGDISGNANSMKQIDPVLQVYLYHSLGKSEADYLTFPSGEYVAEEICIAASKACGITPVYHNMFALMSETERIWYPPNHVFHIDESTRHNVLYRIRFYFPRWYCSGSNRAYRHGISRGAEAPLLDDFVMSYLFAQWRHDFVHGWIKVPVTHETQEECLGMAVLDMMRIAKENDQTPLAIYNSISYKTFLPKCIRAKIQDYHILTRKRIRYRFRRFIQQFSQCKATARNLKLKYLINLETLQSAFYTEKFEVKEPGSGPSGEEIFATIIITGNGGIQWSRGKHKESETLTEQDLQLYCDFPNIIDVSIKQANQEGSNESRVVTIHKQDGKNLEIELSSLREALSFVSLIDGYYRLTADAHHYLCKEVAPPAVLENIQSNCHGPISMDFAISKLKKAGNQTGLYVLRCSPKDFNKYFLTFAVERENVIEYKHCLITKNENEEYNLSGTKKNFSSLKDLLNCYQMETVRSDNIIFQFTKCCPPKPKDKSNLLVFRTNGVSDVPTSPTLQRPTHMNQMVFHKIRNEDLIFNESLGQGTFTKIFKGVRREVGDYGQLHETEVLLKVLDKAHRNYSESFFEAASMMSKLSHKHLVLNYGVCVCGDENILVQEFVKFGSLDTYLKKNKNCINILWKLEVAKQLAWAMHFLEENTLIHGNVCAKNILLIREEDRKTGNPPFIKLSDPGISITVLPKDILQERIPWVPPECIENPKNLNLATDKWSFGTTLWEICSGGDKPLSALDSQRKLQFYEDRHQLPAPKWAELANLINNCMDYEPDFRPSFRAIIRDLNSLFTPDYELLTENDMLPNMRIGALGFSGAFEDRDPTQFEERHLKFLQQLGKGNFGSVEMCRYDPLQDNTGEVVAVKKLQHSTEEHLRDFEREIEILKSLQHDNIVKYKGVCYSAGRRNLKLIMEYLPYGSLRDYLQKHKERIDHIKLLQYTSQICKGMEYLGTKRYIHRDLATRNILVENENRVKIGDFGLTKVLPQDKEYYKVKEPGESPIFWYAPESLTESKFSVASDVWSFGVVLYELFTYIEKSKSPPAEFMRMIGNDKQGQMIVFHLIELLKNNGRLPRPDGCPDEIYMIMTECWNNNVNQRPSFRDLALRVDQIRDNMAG
Chain of FGFR3 (P22607 whole entry, looked up): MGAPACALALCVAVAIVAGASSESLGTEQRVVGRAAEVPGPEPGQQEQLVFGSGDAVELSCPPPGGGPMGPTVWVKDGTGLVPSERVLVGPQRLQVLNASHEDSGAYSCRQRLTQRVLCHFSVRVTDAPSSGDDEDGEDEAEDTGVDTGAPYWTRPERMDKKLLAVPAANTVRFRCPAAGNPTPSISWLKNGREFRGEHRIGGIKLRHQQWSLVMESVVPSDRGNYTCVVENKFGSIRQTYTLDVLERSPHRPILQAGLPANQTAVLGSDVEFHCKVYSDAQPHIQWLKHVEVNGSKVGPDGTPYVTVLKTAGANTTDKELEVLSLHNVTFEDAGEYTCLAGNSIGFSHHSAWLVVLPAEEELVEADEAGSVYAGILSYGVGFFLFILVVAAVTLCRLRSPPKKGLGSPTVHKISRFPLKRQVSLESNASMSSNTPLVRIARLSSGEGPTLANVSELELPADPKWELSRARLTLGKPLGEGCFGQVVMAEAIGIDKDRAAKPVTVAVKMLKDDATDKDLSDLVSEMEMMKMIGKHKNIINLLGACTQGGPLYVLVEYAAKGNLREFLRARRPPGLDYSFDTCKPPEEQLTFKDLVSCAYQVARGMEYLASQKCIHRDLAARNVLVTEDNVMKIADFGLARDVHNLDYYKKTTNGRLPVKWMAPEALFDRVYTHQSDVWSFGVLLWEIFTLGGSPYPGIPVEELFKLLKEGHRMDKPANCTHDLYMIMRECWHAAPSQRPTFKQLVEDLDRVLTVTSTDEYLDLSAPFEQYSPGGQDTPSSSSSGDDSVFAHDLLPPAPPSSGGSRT
Chain of Fes (P07332 whole entry, looked up): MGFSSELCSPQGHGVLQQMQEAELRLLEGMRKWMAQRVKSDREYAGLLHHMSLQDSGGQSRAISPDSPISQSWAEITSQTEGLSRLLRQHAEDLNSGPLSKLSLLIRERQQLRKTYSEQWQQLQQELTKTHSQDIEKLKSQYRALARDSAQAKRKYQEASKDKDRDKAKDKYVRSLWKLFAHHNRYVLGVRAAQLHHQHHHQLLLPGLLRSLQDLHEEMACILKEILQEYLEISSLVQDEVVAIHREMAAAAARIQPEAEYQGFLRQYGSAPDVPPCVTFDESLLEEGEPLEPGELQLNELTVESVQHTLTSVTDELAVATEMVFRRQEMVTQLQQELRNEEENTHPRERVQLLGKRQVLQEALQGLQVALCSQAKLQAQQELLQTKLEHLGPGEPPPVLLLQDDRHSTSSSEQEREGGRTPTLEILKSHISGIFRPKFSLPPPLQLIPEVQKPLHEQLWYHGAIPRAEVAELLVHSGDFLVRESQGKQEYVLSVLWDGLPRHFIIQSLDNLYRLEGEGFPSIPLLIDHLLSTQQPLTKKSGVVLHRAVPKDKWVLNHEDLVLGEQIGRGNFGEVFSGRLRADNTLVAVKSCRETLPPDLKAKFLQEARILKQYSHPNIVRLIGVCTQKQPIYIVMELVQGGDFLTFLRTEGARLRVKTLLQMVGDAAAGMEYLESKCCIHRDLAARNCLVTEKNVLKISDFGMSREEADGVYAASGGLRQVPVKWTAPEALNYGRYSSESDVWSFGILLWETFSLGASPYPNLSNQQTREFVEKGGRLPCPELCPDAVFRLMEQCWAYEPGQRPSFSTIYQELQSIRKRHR
Chain of Fyn (P06241 whole entry, looked up): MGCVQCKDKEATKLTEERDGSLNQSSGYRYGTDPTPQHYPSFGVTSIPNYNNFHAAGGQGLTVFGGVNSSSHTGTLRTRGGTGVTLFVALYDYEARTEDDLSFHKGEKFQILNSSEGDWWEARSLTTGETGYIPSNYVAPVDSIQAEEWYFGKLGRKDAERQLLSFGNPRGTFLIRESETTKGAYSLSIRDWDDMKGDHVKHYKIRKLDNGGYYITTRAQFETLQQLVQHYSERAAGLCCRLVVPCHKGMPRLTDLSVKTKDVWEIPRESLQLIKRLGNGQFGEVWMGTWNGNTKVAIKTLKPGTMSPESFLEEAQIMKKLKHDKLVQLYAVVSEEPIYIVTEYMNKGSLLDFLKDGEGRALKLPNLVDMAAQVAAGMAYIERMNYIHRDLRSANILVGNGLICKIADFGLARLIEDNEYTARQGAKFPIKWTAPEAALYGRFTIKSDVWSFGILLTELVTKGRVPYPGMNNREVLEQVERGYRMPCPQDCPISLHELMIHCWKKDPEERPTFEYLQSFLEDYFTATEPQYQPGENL
Chain of EPHB2 (P29323 whole entry, looked up): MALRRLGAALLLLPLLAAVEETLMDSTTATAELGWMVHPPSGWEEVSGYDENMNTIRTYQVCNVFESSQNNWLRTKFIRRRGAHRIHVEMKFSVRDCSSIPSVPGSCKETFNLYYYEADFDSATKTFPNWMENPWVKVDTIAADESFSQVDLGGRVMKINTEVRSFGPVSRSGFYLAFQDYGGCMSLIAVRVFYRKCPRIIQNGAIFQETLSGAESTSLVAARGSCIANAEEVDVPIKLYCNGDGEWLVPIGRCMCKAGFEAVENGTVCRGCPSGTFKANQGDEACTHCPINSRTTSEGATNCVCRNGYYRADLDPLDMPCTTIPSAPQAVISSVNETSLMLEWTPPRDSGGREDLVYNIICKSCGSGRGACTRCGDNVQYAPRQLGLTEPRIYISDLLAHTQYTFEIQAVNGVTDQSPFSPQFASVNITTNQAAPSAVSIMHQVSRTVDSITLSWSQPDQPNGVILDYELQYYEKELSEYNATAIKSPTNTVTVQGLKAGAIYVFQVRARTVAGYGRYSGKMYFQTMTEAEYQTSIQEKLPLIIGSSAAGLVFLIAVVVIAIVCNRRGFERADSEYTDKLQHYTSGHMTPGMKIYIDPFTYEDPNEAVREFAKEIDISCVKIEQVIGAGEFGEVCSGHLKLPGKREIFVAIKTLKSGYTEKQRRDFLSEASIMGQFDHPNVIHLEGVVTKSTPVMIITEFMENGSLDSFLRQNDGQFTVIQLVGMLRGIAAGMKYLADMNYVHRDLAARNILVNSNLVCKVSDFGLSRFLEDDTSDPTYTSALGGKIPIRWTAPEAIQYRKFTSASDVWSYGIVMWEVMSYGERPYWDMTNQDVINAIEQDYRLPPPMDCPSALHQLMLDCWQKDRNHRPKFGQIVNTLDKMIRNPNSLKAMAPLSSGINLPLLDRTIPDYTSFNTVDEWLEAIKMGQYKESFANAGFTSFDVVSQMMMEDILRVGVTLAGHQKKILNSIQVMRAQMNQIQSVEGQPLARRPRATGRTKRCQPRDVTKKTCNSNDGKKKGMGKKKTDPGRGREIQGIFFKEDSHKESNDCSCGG

Sequence	SH2 binding enrichment (SHP2-C SH2)	SH2 binding enrichment (c-Src SH2)	SH2 binding enrichment (Grb2 SH2)	phosphorylation enrichment (EPHB1)	phosphorylation enrichment (FGFR1)	phosphorylation enrichment (Jak2)	phosphorylation enrichment (Fer (mouse))	phosphorylation enrichment (c-Abl (mouse))	phosphorylation enrichment (EPHB2)	phosphorylation enrichment (c-Src)	phosphorylation enrichment (AncSZ)	phosphorylation enrichment (FGFR3)	phosphorylation enrichment (MERTK)	phosphorylation enrichment (Fyn)	phosphorylation enrichment (Hck)	phosphorylation enrichment (Fes)
GYSRHCEDGYP [CTNND1_Y217_Y217C]	0.563	0.544	0.796	0.521	0.46	0.879	0.465	0.928	0.83	0.489	0.869	0.556	0.446	0.44	0.5	0.972
CFTRKYTLPPG [HSPB1_Y142]	0.601	0.477	0.683	0.546	0.495	0.787	0.459	0.678	0.459	0.452	0.763	0.604	0.42	0.443	0.457	1.06
LRSELYFLIAR [PHIP_Y16]	1.03	1.05	1.44	1.54	3.06	3.62	0.916	1.63	1.4	1.5	2.02	3.17	7.59	0.769	1.93	1.71
VSGIPYGQPKQ [NEU1_Y251]	1.22	0.331	0.94	0.349	0.415	0.522	0.44	0.422	0.323	0.434	0.494	0.437	0.336	0.339	0.419	0.57
EFKKKYSDADI [CKAP5_Y1860_YF]	0.616	0.487	0.883	0.303	0.413	0.606	0.331	0.464	0.565	0.334	0.576	0.476	0.472	0.459	0.408	0.683
MDYRSYPHEYG [RBM10_Y44_R46H]	0.724	0.494	0.647	0.542	0.602	0.682	0.404	0.561	0.551	0.518	0.832	0.632	0.486	0.419	0.484	0.854
KGSLPYSLILD [PKD1L2_Y406_N407S]	4.67	10.5	0.736	0.822	2.32	1.19	1.06	0.86	0.675	1.63	1.08	2.16	1.93	0.734	0.671	1.23
ALWYIYLHTRS [ENG_Y614_S615L]	0.607	0.521	0.641	0.542	0.62	1.09	0.514	0.733	0.476	0.331	1.1	0.821	0.352	0.432	0.384	1.39
KSPDSYQKILF [ATM_Y1415_L1420F]	1.75	1.96	1.26	0.468	0.509	0.6	0.338	0.511	0.464	0.632	0.567	0.427	0.585	0.484	0.406	0.517
GSSKIYFLHAD [TLR5_Y108_P112A]	1.19	0.833	1.12	0.492	0.8	0.954	0.423	0.579	0.557	0.893	0.862	0.731	0.797	0.951	0.712	0.984
GSTLSYFGLAA [P2RX7_Y343]	0.962	0.646	1.14	0.483	1.83	6.12	0.43	0.525	0.621	0.629	0.725	1.6	0.892	0.571	0.63	1.11
VPFAQYLAMNK [HARS1_Y138_R137Q]	0.798	0.533	0.959	0.488	0.494	0.838	0.406	0.504	0.431	0.44	0.685	0.536	0.403	0.458	0.54	0.639
KNNDGYIDFAE [MCFD2_Y135_YF]	0.999	14.3	0.707	0.492	0.556	0.903	0.559	0.663	0.483	0.395	0.921	0.725	0.377	0.406	0.513	1.06
LIHLHYIRRDF [BBS4_Y43_K46R_YF]	0.817	0.854	1.28	0.669	0.521	0.972	0.564	0.333	0.707	0.448	1.1	0.732	0.419	0.503	0.581	1.02
QDDTVYMGKVI [DCTN1_Y1244_T1249I]	0.427	0.389	1.05	0.873	0.913	1.57	0.943	2.06	0.841	0.942	1.72	0.938	0.765	1.45	1.33	1.72
DLDATYRPMYS [JUP_Y701_M697L]	0.832	0.502	0.798	0.399	0.383	0.588	0.433	0.486	0.444	0.569	0.699	0.512	0.386	0.46	0.6	0.86
RASSVFTRSTG [CCR5_Y339_Y339F]	0.778	0.455	0.644	0.619	0.589	0.766	0.736	0.861	0.468	0.821	0.73	0.797	0.624	0.868	0.579	0.732

Second part, led by results:

SH2 binding enrichment (SHP2-C SH2)	SH2 binding enrichment (c-Src SH2)	SH2 binding enrichment (Grb2 SH2)	Sequence	phosphorylation enrichment (EPHB1)	phosphorylation enrichment (FGFR1)	phosphorylation enrichment (Jak2)	phosphorylation enrichment (Fer (mouse))	phosphorylation enrichment (c-Abl (mouse))	phosphorylation enrichment (EPHB2)	phosphorylation enrichment (c-Src)	phosphorylation enrichment (AncSZ)	phosphorylation enrichment (FGFR3)	phosphorylation enrichment (MERTK)	phosphorylation enrichment (Fyn)	phosphorylation enrichment (Hck)	phosphorylation enrichment (Fes)
0.603	0.458	0.814	NKHTNYTMEHI [ACTN1_Y708]	0.35	0.404	0.421	0.36	0.352	0.401	0.381	0.509	0.296	0.358	0.388	0.384	0.549
0.554	0.575	0.849	ASMAKYYASEI [ACADSB_Y372]	0.404	0.483	0.92	0.38	0.717	0.32	0.595	0.701	0.576	0.731	0.491	0.515	0.761
0.792	0.5	1.06	PTTKTYFPHFG [HBA1_Y43_D48G]	0.543	0.501	0.958	0.435	0.491	0.322	0.747	0.658	0.556	0.397	0.458	0.372	0.645
0.753	4.61	0.912	EKSREYHRLFE [PIK3R1_Y463_D464H_YF]	0.407	0.526	0.51	0.409	0.486	0.483	0.442	0.656	0.538	0.427	0.358	0.429	0.737
0.551	0.498	0.868	LDVDVYGPSVP [NUBPL_Y109]	0.622	0.483	0.829	1.2	1.4	0.536	1.33	1.06	0.72	0.498	1.47	1.77	1.28
0.863	0.5	0.969	TEQDPSNNIVR [MMUT_Y364_Y364S]	0.468	0.55	0.771	0.408	0.768	0.46	0.492	0.824	0.557	0.464	0.492	0.408	1
0.617	2.32	0.836	RFMVGYEMLAQ [GALT_Y339_K334R]	0.939	0.875	1.4	0.677	0.849	0.811	0.83	1.38	0.873	0.635	0.719	0.751	1.41
0.838	2.01	0.906	KVPCHYDDPGK [FOXG1_Y246_R244C]	0.469	0.412	0.717	0.86	0.707	0.527	0.443	0.827	0.598	0.412	0.437	0.793	0.943
0.963	0.476	0.633	TEDELYQLFLQ [RASGRP2_Y378_S381F]	1.05	1.37	1.3	8.85	1.13	0.825	4.23	3.06	1.9	2.01	4.54	3.67	1.56
0.732	0.491	0.753	PELINYQQHNS [BTK_Y361_H362Q]	0.79	0.763	1.52	0.742	1.22	0.821	0.969	1.1	0.79	0.988	0.829	1.25	1.38
0.697	0.675	1.07	VNKIYYPDFIV [LIG3_Y768]	0.621	8.82	0.666	0.494	0.596	0.516	1.48	1.23	7.46	2.72	1.09	1.25	0.918
0.566	0.49	0.693	FMFKVYSDPQP [FGFR1_Y280_C277Y_YF]	1.08	0.572	1.49	0.679	1.16	0.845	0.398	1.54	1.08	0.438	0.596	0.667	1.68
0.656	0.534	0.651	SFTDPYAQPPL [KMT2D_Y2378_YF]	0.475	0.487	0.722	0.411	0.502	0.527	0.54	0.787	0.607	0.468	0.531	0.502	0.832
0.83	0.684	0.823	LADMNYVHCDL [EPHB2_Y742_R745C]	0.889	0.811	0.728	0.535	0.652	0.578	0.369	1.01	1.09	0.448	0.57	0.469	0.97
0.556	0.453	0.649	DALDNYVIRGV [PCCA_Y473]	0.512	0.486	0.846	0.481	0.633	0.583	0.504	0.849	0.506	0.408	0.457	0.46	0.842
0.566	0.422	1.15	FFRRHYPLTTL [TNS4_Y644]	0.408	0.426	0.876	0.455	0.587	0.497	0.516	0.995	0.467	0.491	0.426	0.399	0.917
